B1: Estrogen receptor (Homo sapiens), P03372 (parent)
chain: MTMTLHTKASGMALLHQIQGNELEPLNRPQLKIPLERPLGEVYLDSSKPAVYNYPEGAAYEFNAAAAANAQVYGQTGLPYGPGSEAAAFGSNGLGGFPPLNSVSPSPLMLLHPPPQLSPFLQPHGQQVPYYLENEPSGYTVREAGPPAFYRPNSDNRRQGGRERLASTNDKGSMAMESAKETRYCAVCNDYASGYHYGVWSCEGCKAFFKRSIQGHNDYMCPATNQCTIDKNRRKSCQACRLRKCYEVGMMKGGIRKDRRGGRMLKHKRQRDDGEGRGEVGSAGDMRAANLWPSPLMIKRSKKNSLALSLTADQMVSALLDAEPPILYSEYDPTRPFSEASMMGLLTNLADRELVHMINWAKRVPGFVDLTLHDQVHLLECAWLEILMIGLVWRSMEHPGKLLFAPNLLLDRNQGKCVEGMVEIFDMLLATSSRFRMMNLQGEEFVCLKSIILLNSGVYTFLSSTLKSLEEKDHIHRVLDKITDTLIHLMAKAGLTLQQQHQRLAQLLLILSHIRHMSNKGMEHLYSMKCKNVVPLYDLLLEMLDAHRLHAPTSRGGASVEETDQSHLATAGSTSSHSLQKYYITGEAEGFPATV
B2: Progesterone receptor (Homo sapiens), P06401-1 (parent)
chain: MTELKAKGPRAPHVAGGPPSPEVGSPLLCRPAAGPFPGSQTSDTLPEVSAIPISLDGLLFPRPCQGQDPSDEKTQDQQSLSDVEGAYSRAEATRGAGGSSSSPPEKDSGLLDSVLDTLLAPSGPGQSQPSPPACEVTSSWCLFGPELPEDPPAAPATQRVLSPLMSRSGCKVGDSSGTAAAHKVLPRGLSPARQLLLPASESPHWSGAPVKPSPQAAAVEVEEEDGSESEESAGPLLKGKPRALGGAAAGGGAAAVPPGAAAGGVALVPKEDSRFSAPRVALVEQDAPMAPGRSPLATTVMDFIHVPILPLNHALLAARTRQLLEDESYDGGAGAASAFAPPRSSPCASSTPVAVGDFPDCAYPPDAEPKDDAYPLYSDFQPPALKIKEEEEGAEASARSPRSYLVAGANPAAFPDFPLGPPPPLPPRATPSRPGEAAVTAAPASASVSSASSSGSTLECILYKAEGAPPQQGPFAPPPCKAPGASGCLLPRDGLPSTSASAAAAGAAPALYPALGLNGLPQLGYQAAVLKEGLPQVYPPYLNYLRPDSEASQSPQYSFESLPQKICLICGDEASGCHYGVLTCGSCKVFFKRAMEGQHNYLCAGRNDCIVDKIRRKNCPACRLRKCCQAGMVLGGRKFKKFNKVRVVRALDAVALPQPVGVPNESQALSQRFTFSPGQDIQLIPPLINLLMSIEPDVIYAGHDNTKPDTSSSLLTSLNQLGERQLLSVVKWSKSLPGFRNLHIDDQITLIQYSWMSLMVFGLGWRSYKHVSGQMLYFAPDLILNEQRMKESSFYSLCLTMWQIPQEFVKLQVSQEEFLCMKVLLLLNTIPLEGLRSQTQFEEMRSSYIRELIKAIGLRQKGVVSSSQRFYQLTKLLDNLHDLVKQLHLYCLNTFIQSRALSVEFPEMMSEVIAAQLPKILAGMVKPLLFHKK

Variants of: B1
Settings: with PGR

effect of a mutation on the interaction | Variant
with no effect | Y537F

Variants of: B2
Settings: with esr1_human ESR1, P03372

effect of a mutation on the interaction | Variant
with no effect | P422A;P423A;P426A

Variants of: B2
Settings: with src_human SRC

effect of a mutation on the interaction | Variant
disrupting interaction strength | P422A;P423A;P426A
